Experimental data reported in paper PMC5449587 (Nucleic Acids Research, 2017).

Molecular target: the molecule itself
Assay: crystal structure

B1: Burkholderia thailandensis deoxyribonuclease II (enzyme)
chain: MAISPRDEQNRSVDLWFAYKVPKLTKDADSDSASGYEYVYYDRQVGAVQKSPNLMNDPKGALFYTLDSVFGDPGDTTGWILYNDEMPADANRSNNATLGHTKGVIAFDIASSSALWLLHSWPKYASPSVPGVPTPLYGQTFLCLSLDLATAGKLAAQMALHQQPQVYLPRTGGLDHTSPLYALTQPLNASAPGDSDSLDFKTRGGVPFKVIAKNRKWGKDFWNDLVGPTLKADMYVETWIRGKIPPVLDSDGVHKTYDIKFIDLRKLGAPWAWPETQDHAKWGITTTDNWVCVGDINRMVTQEKRGGGTIAFQDPKLWKALCETDLIIPPPGKTDAQARAMIRKTHEPAE
B1: binds.
